Each block holds one substance with its values, some of them ahead of it.
How the values were obtained:
factor X = factor X (UniProt P00742); assay: cell-based or functional assay
VIIaGln298 (human) = VIIaGln298 (human) (UniProt P08709); assay: cell-based or functional assay
[1] = biological target: VIIaGln298 in complex with TF1-218 (human) (UniProt P08709); assay: cell-based or functional assay
[2] = biological target: wild-type VIIa in complex with TF1-218 (human) (UniProt P08709); assay: cell-based or functional assay
[3] = biological target: full-length recombinant human tissue factor (human) (UniProt P13726); assay: SPR, full-length TF captured by TF9-10H10, VIIa premixed with 10 µM 5L15

Chain of UniProt P00742 (P00742 41-488 limits assumed): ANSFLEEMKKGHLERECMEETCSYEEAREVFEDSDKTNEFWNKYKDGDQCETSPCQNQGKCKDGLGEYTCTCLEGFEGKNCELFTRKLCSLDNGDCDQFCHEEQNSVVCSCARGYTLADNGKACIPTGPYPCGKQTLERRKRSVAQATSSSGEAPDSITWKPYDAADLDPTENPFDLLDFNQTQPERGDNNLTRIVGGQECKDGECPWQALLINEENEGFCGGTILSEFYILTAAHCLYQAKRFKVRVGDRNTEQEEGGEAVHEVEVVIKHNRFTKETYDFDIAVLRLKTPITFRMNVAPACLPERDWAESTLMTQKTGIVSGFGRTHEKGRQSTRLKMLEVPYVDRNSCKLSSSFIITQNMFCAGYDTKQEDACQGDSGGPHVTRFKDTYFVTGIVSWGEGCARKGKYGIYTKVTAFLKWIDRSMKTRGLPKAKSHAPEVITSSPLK

- KM (nM) of factor X activation by VIIa bound to phospholipid reconstituted T.F. (factor X): 68 nM
Substance: VIIaGln298 bound to phospholipid reconstituted T.F. (from UniProt P08709 61-212; P08709 213-466; P13726 33-295)

- time to 50% inhibition of amidolytic activity of free VIIa by 0.5 µM antithrombin III with 5 U/ml heparin (VIIaGln298 (human)): 31 min
- time to 50% inhibition of amidolytic activity of T.F.-VIIa complex by 0.5 µM antithrombin III with 5 U/ml heparin [1]: 4.5 min
- time to 50% inhibition of amidolytic activity of T.F.-VIIa complex by 0.5 µM antithrombin III with 5 U/ml heparin [2]: 6 min
Substance: antithrombin III (from UniProt P01008 33-464)

- KM (nM) of factor X activation by VIIa bound to phospholipid reconstituted T.F. (factor X): 61 nM
Substance: wild-type VIIa bound to phospholipid reconstituted T.F. (from UniProt P08709 61-212; P08709 213-466; P13726 33-295)

- Kd [3]: 0.8 nM
Substance: wild-type VIIa premixed with 10 µM 5L15 (from UniProt P08709 61-212; P08709 213-466)
